Laboratory results published in patent US20240343816A1 (INSTITUTE OF HEALTH AND MEDICINE HEFEI COMPREHENSIVE …, published 2024).

Biological target: T1, human-derived IL-6Rα protein (human, UniProt P08887 20-365, limits assumed)
T1 construct: Described only as 'soluble human IL-6Rα protein'; also called h-IL-6Rα; soluble human IL-6Rα protein
T1 sequence (looked up): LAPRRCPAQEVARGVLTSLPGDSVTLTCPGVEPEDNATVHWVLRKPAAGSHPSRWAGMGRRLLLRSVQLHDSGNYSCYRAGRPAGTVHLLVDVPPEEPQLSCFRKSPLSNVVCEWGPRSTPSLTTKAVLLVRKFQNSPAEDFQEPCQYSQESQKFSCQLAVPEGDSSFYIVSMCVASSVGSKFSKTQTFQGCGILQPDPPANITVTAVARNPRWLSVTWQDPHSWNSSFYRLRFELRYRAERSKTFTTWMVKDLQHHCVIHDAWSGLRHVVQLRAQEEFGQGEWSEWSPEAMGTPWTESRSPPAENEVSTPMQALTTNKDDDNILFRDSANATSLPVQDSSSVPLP
Assay: SPR, h-IL-6Rα immobilized on a CM5 chip, 2S3-3D as analyte at 250, 125, 62.5, 31.2 and 15.6 nM
Protocol: The binding kinetics experiments for detecting antigen-antibody were carried out by Biocare Molecular Biological Interaction Platform. […] The binding time was set at 180 s/dissociation time at 200 s. The binding and dissociation of antigen and antibody were observed, and the data were analyzed by the corresponding analysis software.

B1: nanobody 2S3-3D (VHH)
VHH: QLQLVESGGGLVRPGGSLRLSCTIHGVTLDWYAVGWFRQAPGKEREGVSCISSSDGSTYYADSVKGRFTISRDNVKNTMYLQMNSLKPEDTAVYYCAMVFTTAQAMGVPFHDFEYDYWGPGTQVTVSS
notes: Alpaca-derived VHH expressed from pTT5 in 293F cells; also called anti-h-IL-6Rα nanobody; the nanobody
Binder B1 has a Kd of 6.33 nM.
